The supplement of paper PMC10567573

B1: INTS3 (parent)
chain: EEITEESLEESVGKPLYLIFRNLC
B2: HSP90AB1 (parent)
chain: YHTSQSGDEMTSLSEYVSRMKETQ

Variants of: B1
Experiment: protein stability index of a GFP-peptide fusion (GPS, HEK-293T) (PSI 1-6); higher = more stable
Conditions: c terminus: a fixed tail appended
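Note: lentivirally expressed fusions sorted by FACS into six bins by GFP to DsRed ratio, PSI derived from sequencing read proportions per bin multiplied by bin number.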

Protein stability index of substitutions, site by site:
F20: S 3.77 | T 3.6 | V 2.55 | W 2.35 | Y 2.71
R21: A 2.77 | C 2.62 | D 3.46 | E 2.64 | F 2.03 | G 3.1 | H 3.08 | I 1.63 | K 2.61 | L 1.9 | M 2.1 | N 2.96 | P 3.53 | Q 2.77 | S 2.95 | T 2.61 | V 2.09 | W 2.1 | Y 2.03
N22: A 2.26 | C 2.83 | D 3.4 | E 2.8 | F 2.94 | G 2.19 | H 2.64 | I 2.05 | K 2.56 | L 3.01 | M 2.33 | P 2.54 | Q 2.42 | R 2.96 | S 2.79 | T 2.15 | V 1.55 | W 1.68 | Y 2.06
L23: A 3.74 | C 3.54 | D 3.75 | E 3.98 | F 3.14 | G 3.62 | H 3.19 | I 2.63 | K 4.52 | M 2.74 | N 3.47 | P 3.82 | Q 4.17 | R 3.47 | S 3.67 | T 3.4 | V 3.39 | W 2.85 | Y 2.68
C24: A 2.87 | D 3.48 | E 3.54 | F 2.99 | G 2.54 | H 2.88 | I 2.32 | K 3.11 | L 2.16 | M 2.7 | N 3.33 | P 2.62 | Q 2.19 | R 3.02 | S 2.55 | T 2.66 | V 1.68 | W 2.08 | Y 2.32

Variants of: B2
Experiment: as above
Conditions: c terminus: a fixed tail appended

Protein stability index of substitutions, site by site:
Y1: A 4.7 | C 4.49 | D 4.48 | E 4.97 | F 3.68 | G 4.26 | H 4.97 | I 4.49 | K 4.29 | L 4.84 | M 4.06 | N 4.77 | P 5.09 | Q 4.61 | R 4.14 | S 4.67 | T 5.02 | V 4.81 | W 4.2
H2: A 2.87 | C 3.57 | D 4.45 | E 4.56 | F 4.26 | G 4.62 | I 3.46 | K 4.66 | L 4.15 | M 3.61 | N 3.92 | P 5 | Q 3.94 | S 4.42 | T 4.67 | V 2.83 | W 3.52 | Y 3.15
T3: A 3.26 | C 3.22 | D 4.53 | E 3.07 | F 2.96 | G 3.41 | H 3.67 | I 3.18 | K 3.48 | M 3.12 | N 3.42 | P 2.81 | Q 3.66 | R 3.8 | S 3.58 | V 2.96 | W 1.53
S4: A 3.86 | C 3.56 | D 3.49 | E 4.38 | G 3.02 | H 3.38 | I 2.51 | K 2.07 | L 2.48 | M 3.61 | N 3.39 | Q 3.34 | T 3.99 | V 3.12 | W 1.96 | Y 2.21
Q5: A 3.66 | C 3.17 | D 4.45 | E 3.79 | F 2.35 | G 3.84 | H 3.67 | I 2.64 | L 2.83 | M 3.67 | N 3.39 | P 3.34 | R 3 | S 3.55 | T 3.91 | W 1.98 | Y 3.21
S6: A 3.54 | C 3.22 | D 4.53 | E 4.15 | F 2.54 | G 3.75 | H 2.91 | I 2.98 | K 3.03 | L 3.26 | N 4.08 | P 3.02 | Q 2.83 | R 3.56 | T 3.46 | V 3.21 | W 1.88 | Y 2.06
G7: A 3.73 | C 3.33 | D 4.08 | E 4.12 | F 3.17 | H 3.65 | I 3.29 | K 3.33 | L 3.61 | M 3.47 | N 2.83 | P 3.74 | Q 3.78 | R 3.44 | S 3.67 | T 4.32 | V 3.26 | W 2.99 | Y 2.98
D8: A 3.53 | C 2.58 | E 4.24 | F 3.44 | G 2.89 | H 2.92 | I 2.32 | K 3.24 | L 3.31 | N 3.33 | P 3 | Q 3.69 | S 3.77 | T 3.24 | V 3.47 | W 2.17 | Y 2.26
E9: A 2.78 | C 2.48 | D 3.79 | F 2.33 | G 3.67 | H 3.11 | I 2.77 | L 2.09 | M 2.52 | P 3.51 | Q 3.43 | R 1.99 | S 2.91 | T 3.66 | V 3.12 | W 1.87 | Y 2.58
M10: A 4.01 | C 4.05 | D 4.68 | E 4.54 | F 3.06 | G 4.1 | H 3.46 | I 4.08 | K 4.04 | L 3.32 | N 4.17 | P 4.17 | Q 4.05 | R 3.9 | S 3.87 | T 3.73 | V 3.74 | W 2.12 | Y 3.2
T11: A 3.51 | C 3.62 | D 3.81 | E 3.9 | F 2.78 | G 3.77 | H 3.64 | I 3.12 | K 4.58 | L 3.35 | M 3.07 | N 3.56 | P 3.57 | R 3.53 | S 3.62 | V 3.68 | W 2.01 | Y 2.74
S12: A 3.21 | C 2.87 | D 4.14 | E 4.28 | F 2.98 | G 3.75 | H 3.52 | I 2.92 | K 3.12 | L 2.49 | N 3.64 | P 3.52 | Q 3.36 | T 3.88 | V 2.99 | W 2.6 | Y 2.81
L13: A 4.37 | C 3.52 | D 4.11 | E 4.62 | F 2.18 | G 4.27 | H 3.88 | I 3.5 | K 3.82 | M 4.04 | N 4.34 | P 3.74 | Q 4.59 | R 4.21 | S 3.68 | T 4.25 | V 3.32 | Y 3.38
S14: A 3.66 | C 3.44 | D 2.96 | E 4.31 | F 3.05 | G 3.78 | K 3.5 | L 2.65 | M 3.25 | N 3.24 | P 3.74 | Q 3.54 | R 3.57 | T 3.71 | V 3.37 | W 1.81 | Y 3.11
E15: A 2.6 | D 3.02 | F 1.99 | G 2.68 | H 2.96 | I 2.37
